Experiments:
ZF17-MQ1 (synthetic) = ZF17-MQ1 (synthetic) (UniProt P15840); assay: cell_activity; details: LL2 cells
ZF16-MQ1 (synthetic) = ZF16-MQ1 (synthetic) (UniProt P15840); assay: cell_activity; details: LL2 cells
ZF16-MQ1 (synthetic), sequence (P15840 other isoform, or with tags, fused parts or gaps): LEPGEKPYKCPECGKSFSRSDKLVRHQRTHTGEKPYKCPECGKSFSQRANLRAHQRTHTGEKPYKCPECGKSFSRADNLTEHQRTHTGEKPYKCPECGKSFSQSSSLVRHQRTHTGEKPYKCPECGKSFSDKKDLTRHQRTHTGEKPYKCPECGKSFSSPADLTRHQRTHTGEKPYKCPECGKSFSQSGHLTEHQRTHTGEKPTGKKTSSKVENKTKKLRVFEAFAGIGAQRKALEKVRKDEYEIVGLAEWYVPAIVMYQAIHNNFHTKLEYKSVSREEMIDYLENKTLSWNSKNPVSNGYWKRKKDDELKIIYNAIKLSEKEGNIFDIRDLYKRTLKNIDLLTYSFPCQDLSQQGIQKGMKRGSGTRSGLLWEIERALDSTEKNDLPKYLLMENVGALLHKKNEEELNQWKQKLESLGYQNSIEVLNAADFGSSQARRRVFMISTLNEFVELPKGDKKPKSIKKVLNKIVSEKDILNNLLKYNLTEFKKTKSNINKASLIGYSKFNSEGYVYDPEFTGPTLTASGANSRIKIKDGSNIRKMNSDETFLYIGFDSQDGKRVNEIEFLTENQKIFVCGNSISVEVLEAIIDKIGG

ZF17-MQ1 (synthetic), sequence (P15840 other isoform, or with tags, fused parts or gaps): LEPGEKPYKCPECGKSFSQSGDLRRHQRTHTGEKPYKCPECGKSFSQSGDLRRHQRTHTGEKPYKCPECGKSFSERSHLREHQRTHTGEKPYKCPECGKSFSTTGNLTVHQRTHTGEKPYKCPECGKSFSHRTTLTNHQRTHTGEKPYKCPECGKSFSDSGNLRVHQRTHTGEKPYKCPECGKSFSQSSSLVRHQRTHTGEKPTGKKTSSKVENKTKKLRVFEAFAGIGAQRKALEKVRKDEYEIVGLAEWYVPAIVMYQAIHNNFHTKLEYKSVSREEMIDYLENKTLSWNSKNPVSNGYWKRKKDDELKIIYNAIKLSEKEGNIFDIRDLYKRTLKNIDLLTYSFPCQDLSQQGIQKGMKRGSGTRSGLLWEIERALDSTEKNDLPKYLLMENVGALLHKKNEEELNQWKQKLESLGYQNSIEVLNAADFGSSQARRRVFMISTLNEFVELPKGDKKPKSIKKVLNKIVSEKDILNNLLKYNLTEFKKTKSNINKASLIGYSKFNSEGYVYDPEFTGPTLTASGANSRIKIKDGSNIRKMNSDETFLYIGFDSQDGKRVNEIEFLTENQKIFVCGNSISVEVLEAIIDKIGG

Question: For mouse Myc genomic locus, which activity (% MYC mRNA reduction) (ZF17-MQ1 (synthetic)) is on record?
Answer: > 99.9

Question: What about the activity (% MYC mRNA reduction) (ZF16-MQ1 (synthetic)) of the same substance?
Answer: 74
